What all share (test): cell-based or functional assay
In assay [1] the target is recombinant hGM-CSF derived from yeast (Leukine, Berlex) (human) (UniProt P04141).
The target of assay [2] is recombinant hGM-CSF from E. coli (Peprotech) (human) (UniProt P04141).
For assay [3], the target named is recombinant hGM-CSF expressed in E. coli (Fa. Biomol #2514) (human) (UniProt P04141).
Sequence of recombinant hGM-CSF expressed in E. coli (Fa. Biomol #2514) (human) (P04141 18-144 limits assumed): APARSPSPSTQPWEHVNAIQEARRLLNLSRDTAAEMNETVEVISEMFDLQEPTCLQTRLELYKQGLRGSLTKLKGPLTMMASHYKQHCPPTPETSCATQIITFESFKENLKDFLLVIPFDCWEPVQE

Sequence of recombinant hGM-CSF from E. coli (Peprotech) (human) (P04141 18-144 limits assumed): as above
Sequence of recombinant hGM-CSF derived from yeast (Leukine, Berlex) (human) (P04141 other isoform, or with tags, fused parts or gaps limits assumed, form in doubt): as the sequence (P04141 18-144 limits assumed) above, with R23L counted along it

Turning to “human anti-human cytomegalovirus monoclonal antibody (hIgG)”, the TF-1 cell proliferation with 0.5 ng/mL rhGM-CSF (WST-1 assay) in assay [1] and in assay [2] was less than 2 µg/mL throughout.
“rat-anti-human-GM-CSF IgG2a BVD2-21C11 (Fa. BD, #554503) (antibody)”: the IC50 in TF-1 assay, hGM-CSF (E. coli) at 1.0 ng/ml final concentration in assay [3] is 8.26 nM.

For the origin of these results see patent US20140205611A1.
